Two proteins from paper PMC4144707 (Biochemistry, 2014) can be followed below.

Where no end group is shown, it is not given here.

The series concerns the molecule itself. Nature of the series: deuterium MAS solid-state NMR.

For RRAGSVYAGILSYGVGFFLFILVVAAVTLCRLRSPPKKGLG-NH2 (also: (5,5,5-d3) leucine at 385 or 388) [FGFR3 TM–JM (WT) peptide, FGFR3 (369–407) with two N-terminal arginines], the binding result is listed as “binds”.

Consider RRAGSVYAGILSYGVGFFLFILVVEAVTLCRLRSPPKKGLG-NH2 (also: (5,5,5-d3) leucine at 385 or 388) [FGFR3 TM–JM (A391E) peptide, FGFR3 (369–407) with two N-terminal arginines], for which the binding result is listed as “binds”.
